The source of these data is patent US20150140683A1.

Bounds are passed on as bounds.

Assay [1] deals with antibody captured on the human Fab capture surface (unnamed IgG). Description: SPR (BIAcore), antibody captured via human Fab capture kit, 50 nM receptor injected, 25 C. A general note: In SPR one partner is held on a chip, and binding of the other changes the refractive index at the surface.
Assay [2] shares this target. Description: SPR (BIAcore), antibody captured via human Fab capture kit, 50 nM fusion polypeptide injected, 25 C.

In the case of “FcgammaRIIIaV158 (intact HisAvi-tag comprising functional variant of FcgRIIIa) (receptor)”, in assay [1], the response units was found to be 40 RU. Take “FcgammaRIIIaV158-Avi-IgA Protease-Fc LALA P329G fusion polypeptide (Fc fusion)”: in assay [2], the response units was greater than 100 RU.
